Test results published in article PMC10267100 (Communications Biology, 2023).
Numbering of substitutions follows the chain as printed. Names and notes keep the numbering of the source. Square brackets hold non-standard residues; d marks the D form. Ends that are not written are not given here. pY = N[C@@H](Cc1ccc(OP(=O)(O)O)cc1)C(=O)O

T1: PTP1B (Homo sapiens, UniProt P18031)
T1 construct: human PTP1B phosphatase domain (residues 2–321) with a GST tag; GST (cleaved yes); made in house; host or cells: E. coli BL21 (DE3)
T1 sequence (P18031 2-321): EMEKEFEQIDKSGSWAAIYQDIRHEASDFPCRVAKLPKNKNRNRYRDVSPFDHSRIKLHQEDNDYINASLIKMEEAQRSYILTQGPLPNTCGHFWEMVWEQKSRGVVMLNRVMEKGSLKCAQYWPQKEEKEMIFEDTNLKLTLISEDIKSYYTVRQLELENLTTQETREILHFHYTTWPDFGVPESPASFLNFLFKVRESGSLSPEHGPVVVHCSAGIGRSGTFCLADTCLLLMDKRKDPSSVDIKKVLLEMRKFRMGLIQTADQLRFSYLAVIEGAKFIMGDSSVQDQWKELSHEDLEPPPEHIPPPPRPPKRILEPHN

T2: IRK pYpY activation loop peptide
T2 peptide: ETD[pY][pY]RKGGKGL

T3: PTP1B phosphatase domain (residues 2-321) D181A/Q262A (human, UniProt P18031 2-321, D181A | Q262A)
T3 construct: Protein tyrosine phosphatase 1B, human, phosphatase domain, residues 2-321, D181A/Q262A; pPROEX vector; no cleavage of the His tag is told; also called PTP1B D181A/Q262A; PTP1B D/Q; source: E. coli BL21 (DE3), purified (nickel resin, size exclusion)
T3 sequence (looked up): T1 sequence (P18031 2-321) with D180A, Q261A

T4: PTP1B phosphatase domain (residues 2-321) C215A/D181A/Q262A triple mutant (human, UniProt P18031 2-321, D181A | C215A | Q262A)
T4 construct: Protein tyrosine phosphatase 1B, human, phosphatase domain, residues 2-321, D181A/C215A/Q262A; pPROEX vector; no cleavage of the His tag is told; also called D181A/Q262A/C215A; PTP1B D/Q/C; source: E. coli BL21 (DE3), purified (nickel resin, size exclusion)
T4 sequence (looked up): T1 sequence (P18031 2-321) with D180A, C214A, Q261A

B1: PTP1B phosphatase domain (residues 2-321) R47A (enzyme)
chain: T1 sequence (P18031 2-321) with R46A
B2: human PTP1B phosphatase domain (residues 2-321), wild type (enzyme, UniProt P18031 2-321, looked up)
chain: T1 sequence (P18031 2-321)
B3: JAK1 pYpY activation loop peptide (peptide)
peptide: AIETDKE[pY][pY]TVKDDLD
notes: printed as AIETDKE[pY][pY]TVKDDLD; In the crystal with PTP1B D181A/Q262A the peptide is seen as the dephosphorylated product; also called JAK1 peptide; source: synthetic peptide
B4: TYK2 pYpY activation loop peptide (peptide)
peptide: VPEGHE[pY][pY]RVREDGD
notes: printed as VPEGHE[pY][pY]RVREDGD; In the crystal with PTP1B D181A/Q262A the peptide is seen as the dephosphorylated product; source: synthetic peptide
B5: JAK2 pYpY activation loop peptide (peptide)
peptide: VLPQDKE[pY][pY]KVKEPGE
notes: printed as VLPQDKE[pY][pY]KVKEPGE; In the crystal with PTP1B D181A/Q262A the peptide is seen as the dephosphorylated product; source: synthetic peptide
B6: JAK3 pYpY activation loop peptide (peptide)
peptide: LLPLDKD[pY][pY]VVREPGQ
notes: printed as LLPLDKD[pY][pY]VVREPGQ; In the crystal with PTP1B D181A/Q262A the peptide is seen as the dephosphorylated product; also called JAK3 peptide; source: synthetic peptide

Assays:
PTP1B [1] = conditions: peptide with Phe in the −1 position; cited from earlier work
PTP1B R47A = assay: 1H NMR dephosphorylation of bisphosphorylated activation loop peptides; type: biochemical, human; conditions: bisphosphorylated peptide as substrate, PTP1B R47A mutant
Excerpt: Fig. 6 PTP1B preferentially targets different phosphotyrosines in the JAK2 and IRK activation loops. a Michaelis–Menten analysis of PTP1B-induced dephosphorylation via the malachite green assay. Data are from three independent experiments, error bars are SEM. b Dephosphorylation of mono- and bisphosphorylated peptides over time as measured by 1H NMR to determine reaction rate (shown as s-1). c 1H NMR was used to track the dephosphorylation of JAK2 and IRK bisphosphorylated activation loop peptides over time. […] Arg47 has an effect on the preference for dephosphorylation of the second phosphotyrosine in JAK2, with loss of selectivity for dephosphorylation of either phosphotyrosine in the R47A PTP1B mutant. […]
(§1) Specifically, we measured the appearance of the individual YpY, pYY and YY products over time (Supplementary Fig. S6). […]
0.5 mg of JAK2 or IRK pYpY, pYY and YpY peptides were dissolved in 500 μl of 20 mM Tris (pH 7.5), 2 mM TCEP, and 100 mM NaCl. […] To start the dephosphorylation reaction, 2 nM PTP1B was added to each sample and multiple 1H NMR spectra were recorded over the course of 1 h. Data was analyzed using TopSpin v3.2 (Bruker). The concentration of each species of ALP (pYpY, pYY, or YpY) in the reaction was calculated by integrating the area under the peak and normalising these values to the starting peptide concentration.

PTP1B [2] = target: T1, PTP1B; assay: 1H NMR dephosphorylation of activation loop peptides; type: biochemical; conditions: bisphosphorylated peptide as substrate, WT PTP1B, Fig. 6c
Excerpt: A Michaelis-Menten analysis of dephosphorylation of JAK2 and IRK activation loop peptides indicated an enhanced dephosphorylation rate for both peptides when in the bisphosphorylated state (Fig. 6a), consistent with previous data on IRK[7]. […] Using ^1H NMR we then measured the dephosphorylation of individual YpY, pYY and YY peptides over time (Supplementary Fig. S5), and similarly, observed an overall preference for bisphosphorylated peptides, however JAK2 YpY was dephosphorylated at a similar rate as the pYpY peptides, highlighting again the preference for this residue by PTP1B (Fig. 6).
Fig. 6 PTP1B preferentially targets different phosphotyrosines in the JAK2 and IRK activation loops. a Michaelis–Menten analysis of PTP1B-induced dephosphorylation via the malachite green assay. Data are from three independent experiments, error bars are SEM. b Dephosphorylation of mono- and bisphosphorylated peptides over time as measured by 1H NMR to determine reaction rate (shown as s-1). c 1H NMR was used to track the dephosphorylation of JAK2 and IRK bisphosphorylated activation loop peptides over time. […]
as §1
0.5 mg of JAK2 or IRK pYpY, pYY and YpY peptides were dissolved in 500 μl of 20 mM Tris (pH 7.5), 2 mM TCEP, and 100 mM NaCl. […] Data was analyzed using TopSpin v3.2 (Bruker). […]

[3] = target: B5
[4] = target: T2, IRK pYpY activation loop peptide; assay: cell-based or functional assay
[5] = target: B5; assay: cell-based or functional assay
[6] = target: T3, PTP1B phosphatase domain (residues …); assay: crystal structure; PTP1B D181A/Q262A co-crystallised with a 2-fold excess of bisphosphorylated peptide; the tyrosyl-peptide product and free phosphate are seen in the active site; conditions: both partners purified
[7] = target: T4, PTP1B phosphatase domain (residues …); assay: crystal structure; catalytically dead PTP1B D181A/Q262A/C215A co-crystallised with a 2-fold excess of phosphopeptide; substrate-bound; conditions: both partners purified

Row | Molecule | binding result [6] | binding result [7] | other results
1 | ELEFpYMDYE [peptide of PDB 1EEO with Phe in the −1 position, literature PTP1B substrate] |  |  | substrate quality for PTP1B (PTP1B [1]): potent PTP1B substrate
2 | VLPQDKE[pY][pY]KVKEPGE [JAK2 pYpY] |  |  | preference for dephosphorylation of the second pTyr over the first (PTP1B R47A): 1.3 fold; rate of dephosphorylation of the second pTyr relative to the first (PTP1B [2]; 1H NMR tracking of pYY and YpY products): ~ 3 fold
3 | ETD[pY][pY]RKGGKGL [IRK pYpY] |  |  | preference for dephosphorylation of the first pTyr over the second (PTP1B [2]; 1H NMR tracking of products): ~ 1.6 fold
4 | B1 |  |  | preference for dephosphorylation of the second pTyr against the first in the bisphosphorylated peptide, followed by 1H NMR [3]: 1.3 fold
5 | B2 |  |  | preference for dephosphorylation of the first pTyr against the second in the bisphosphorylated peptide, followed by 1H NMR [4]: ~1.6 fold; rate of dephosphorylation of the second pTyr against the first in the bisphosphorylated peptide, followed by 1H NMR [5]: ~3 fold
6 | B3 | binds |  | 
7 | B4 | binds | binds | 
8 | B5 | binds | binds | 
9 | VLPQDKE[pY]YKVKEPGE (source: synthetic peptide) [JAK2 pYY activation loop peptide] |  | binds | 
10 | B6 | binds |  | 
11 | VLPQDKEY[pY]KVKEPGE (source: synthetic peptide) [JAK2 YpY activation loop peptide] |  | binds | 
